US20220281969A1 (ANTLERA THERAPEUTICS, published 2022)

Key:
[1] = target: T1, recombinant mouse LRP5-His chimera (mouse, UniProt Q91VN0 31-1383); test: single-point ELISA, IgG1 on coated antigen
T1 construct: extracellular domain; not shown: His tag
T1 sequence (looked up): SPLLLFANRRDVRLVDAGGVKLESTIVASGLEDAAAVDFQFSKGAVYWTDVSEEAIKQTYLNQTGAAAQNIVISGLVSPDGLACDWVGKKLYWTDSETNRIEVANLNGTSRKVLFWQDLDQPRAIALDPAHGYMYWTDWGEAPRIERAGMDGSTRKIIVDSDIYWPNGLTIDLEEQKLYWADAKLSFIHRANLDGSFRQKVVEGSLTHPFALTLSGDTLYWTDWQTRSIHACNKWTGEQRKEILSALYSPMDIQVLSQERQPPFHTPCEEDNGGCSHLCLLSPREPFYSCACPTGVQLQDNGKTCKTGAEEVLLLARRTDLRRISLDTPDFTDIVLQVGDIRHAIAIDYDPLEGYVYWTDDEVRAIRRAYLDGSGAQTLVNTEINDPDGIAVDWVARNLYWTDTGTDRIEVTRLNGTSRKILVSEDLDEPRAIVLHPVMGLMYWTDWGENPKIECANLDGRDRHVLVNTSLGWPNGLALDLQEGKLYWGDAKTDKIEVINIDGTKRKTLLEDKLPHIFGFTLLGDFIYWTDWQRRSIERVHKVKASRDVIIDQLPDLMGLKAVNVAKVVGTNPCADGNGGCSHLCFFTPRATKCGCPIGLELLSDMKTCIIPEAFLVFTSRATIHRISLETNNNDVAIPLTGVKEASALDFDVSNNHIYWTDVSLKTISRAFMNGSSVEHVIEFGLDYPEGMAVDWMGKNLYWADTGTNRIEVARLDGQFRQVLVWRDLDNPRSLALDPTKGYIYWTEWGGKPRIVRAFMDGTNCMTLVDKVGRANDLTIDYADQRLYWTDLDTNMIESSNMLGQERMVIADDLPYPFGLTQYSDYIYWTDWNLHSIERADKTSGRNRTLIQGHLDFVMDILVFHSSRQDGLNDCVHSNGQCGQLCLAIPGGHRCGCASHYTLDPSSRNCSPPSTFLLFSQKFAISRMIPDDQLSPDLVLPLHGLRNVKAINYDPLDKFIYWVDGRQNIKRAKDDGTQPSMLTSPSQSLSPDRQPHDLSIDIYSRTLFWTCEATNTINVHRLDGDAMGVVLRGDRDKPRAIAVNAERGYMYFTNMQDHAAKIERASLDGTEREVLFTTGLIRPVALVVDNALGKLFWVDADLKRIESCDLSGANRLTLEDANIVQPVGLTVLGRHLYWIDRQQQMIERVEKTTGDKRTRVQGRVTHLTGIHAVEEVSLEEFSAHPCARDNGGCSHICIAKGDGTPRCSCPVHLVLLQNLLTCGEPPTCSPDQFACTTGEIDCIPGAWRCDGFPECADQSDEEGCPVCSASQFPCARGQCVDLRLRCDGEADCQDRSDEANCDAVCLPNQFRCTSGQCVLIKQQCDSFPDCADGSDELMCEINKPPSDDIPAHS
Description: (§1) FIGS. 1a and 1b show LRP six antibodies. (A) The amino acid sequences of the complementarity determining regions (CDR) of the heavy (H) and the light (L) chains are presented. The antibodies were grouped into unique epitopes as determined by competitive ELISAs. (B) Single-point ELISAs were performed on 96-well Maxisorb immune plates coated with the […] of mouse LRP5, mouse LRP6 and human LRP6 chimeras. The plates were incubated with the purified Fab or IgG1 at the concentrations indicated followed by incubation with horseradish peroxidase (HRP)-conjugated anti-kappa antibody. The wells were washed eight times followed by incubation with 3,3′,5,5′-tetramethylbenzidine/H₂O₂ peroxidase (TMB) substrate for 5-10 min. The reaction was stopped by adding one M H₃PO₄ and the absorbance was measured spectrometrically at 450 nm in a microtiter plate reader.
(§2) The full length IgG1s were purified and a single-point ELISA was done to determine the specificity of the antibodies. […] A multipoint competitive ELISA was used to determine the relative affinities of the antibodies to the recombinant antigen.

[2] = target: T2, recombinant mouse LRP6His chimera (mouse, UniProt O88572 20-1370); test: single-point ELISA, IgG1 on coated antigen
T2 construct: extracellular domain; not shown: His tag
T2 sequence (looked up): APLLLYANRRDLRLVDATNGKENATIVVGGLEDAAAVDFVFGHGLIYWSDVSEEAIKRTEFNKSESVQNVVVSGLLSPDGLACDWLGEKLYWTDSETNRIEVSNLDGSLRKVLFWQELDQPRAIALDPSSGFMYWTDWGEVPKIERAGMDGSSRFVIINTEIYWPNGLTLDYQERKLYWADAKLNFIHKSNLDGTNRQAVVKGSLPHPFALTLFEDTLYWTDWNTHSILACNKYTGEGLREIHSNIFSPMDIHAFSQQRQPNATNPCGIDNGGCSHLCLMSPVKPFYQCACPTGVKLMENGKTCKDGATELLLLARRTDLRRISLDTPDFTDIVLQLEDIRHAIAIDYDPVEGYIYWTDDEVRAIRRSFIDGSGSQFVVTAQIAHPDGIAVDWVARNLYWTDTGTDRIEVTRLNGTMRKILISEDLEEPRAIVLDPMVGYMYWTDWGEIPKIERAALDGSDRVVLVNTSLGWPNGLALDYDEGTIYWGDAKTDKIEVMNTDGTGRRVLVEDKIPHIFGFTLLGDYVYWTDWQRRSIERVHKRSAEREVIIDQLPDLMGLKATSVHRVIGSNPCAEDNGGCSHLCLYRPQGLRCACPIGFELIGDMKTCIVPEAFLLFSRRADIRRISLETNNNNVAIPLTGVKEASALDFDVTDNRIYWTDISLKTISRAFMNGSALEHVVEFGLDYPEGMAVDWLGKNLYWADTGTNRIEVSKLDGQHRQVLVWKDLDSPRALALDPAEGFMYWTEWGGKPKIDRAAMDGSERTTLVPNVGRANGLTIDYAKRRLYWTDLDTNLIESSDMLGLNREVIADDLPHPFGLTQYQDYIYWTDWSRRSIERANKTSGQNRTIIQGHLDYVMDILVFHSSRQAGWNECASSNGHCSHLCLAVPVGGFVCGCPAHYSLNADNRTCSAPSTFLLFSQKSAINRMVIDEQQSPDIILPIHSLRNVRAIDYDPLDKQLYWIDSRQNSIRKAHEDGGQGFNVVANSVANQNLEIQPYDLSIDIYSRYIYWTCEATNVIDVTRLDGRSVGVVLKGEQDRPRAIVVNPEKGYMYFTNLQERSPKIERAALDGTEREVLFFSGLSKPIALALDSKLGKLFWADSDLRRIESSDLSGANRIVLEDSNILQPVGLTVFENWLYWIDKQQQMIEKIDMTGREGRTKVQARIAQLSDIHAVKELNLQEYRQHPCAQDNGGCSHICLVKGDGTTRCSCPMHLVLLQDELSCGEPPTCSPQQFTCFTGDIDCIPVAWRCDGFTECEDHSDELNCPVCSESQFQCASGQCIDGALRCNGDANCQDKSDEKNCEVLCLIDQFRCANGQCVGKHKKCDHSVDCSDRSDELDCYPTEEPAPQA
Description: as §1, §2

B1: LRP6-E3 IgG1 antibody (antibody, V domains shown)
VH: EVQLVESGGGLVQPGGSLRLSCAASGFNLYYYSMHWVRQAPGKGLEWVASIYSSYGYTYYADSVKGRFTISADTSKNTAYLQMNSLRAEDTAVYYCARYAGYYYYPWAYYGWPFSGLDYWGQGTLVTVSS
VL: DIQMTQSPSSLSASVGDRVTITCRASQSVSSAVAWYQQKPGKAPKLLIYSASSLYSGVPSRFSGSRSGTDFTLTISSLQPEDFATYYCQQAGSAPYHLITFGQGTKVEIKR
notes: Tested as purified full length IgG1
binding result [1]: no binding | binding result [2]: no binding
